In this experiment the target is recombinant caprine β-lactoglobulin (unlabelled) (caprine) (UniProt P02756). Put plainly: AUC.

Broadly, the stoichiometry N is a count of units in the complex or per binding partner. Consider “recombinant caprine β-lactoglobulin (unlabelled) (from UniProt P02756 19-180) (natural protein)”, for which the stoichiometry N amounted to 2.

Source of the values: paper doi:10.1101/675587.
